± gives the standard error. For some of these results: This sample holds only a part of the variants without activity.
B1: glmS ribozyme (parent)
chain: AUAAAAGCGCCAGAACUACAGAAAUGUAGUUGACGAGGAGGAGGUUUAUCGAAUUUUCGGCGGAUGCCUCCAAA

Assays:
Details in all cases: with glucosamine-6-phosphate
glucosamine-6-phosphate [1] = variants of: B1; assay: kcat; higher = faster cleavage; RNA array
How it was run: (§1)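 On sequenced MiSeq chips, barcoded ribozyme variants were made in situ by E. coli RNA polymerase and followed at 37 °C through a hybridised Cy3 probe. Glucosamine-6-phosphate was flowed in at 40 μM to 10 mM in HEPES/KCl/Mg(OAc)2 buffer. Exponential fits to normalised per-tile medians gave kobs, and weighted Michaelis–Menten fits gave kcat and KM.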

glucosamine-6-phosphate [2] = variants of: B1; assay: KM; higher = weaker cofactor use; RNA array
How it was run: as §1

glucosamine-6-phosphate [3] = variants of: B1; assay: self-cleavage kobs at 640 uM GlcN6P; higher = faster cleavage; RNA array
How it was run: as §1

glucosamine-6-phosphate [4] = variants of: B1; assay: self-cleavage kobs at 2500 uM GlcN6P; higher = faster cleavage; RNA array
How it was run: as §1

glucosamine-6-phosphate [5] = variants of: B1; assay: self-cleavage kobs at 10000 uM GlcN6P; higher = faster cleavage; RNA array
How it was run: as §1

glucosamine-6-phosphate [6] = variants of: B1; assay: self-cleavage kobs at 40 uM GlcN6P; higher = faster cleavage; RNA array
How it was run: as §1

glucosamine-6-phosphate [7] = variants of: B1; assay: self-cleavage kobs at 160 uM GlcN6P; higher = faster cleavage; RNA array
How it was run: as §1

Variant	kcat (glucosamine-6-phosphate [1]) [s⁻¹]	KM (glucosamine-6-phosphate [2]) [µM]	self-cleavage kobs at 640 uM GlcN6P (glucosamine-6-phosphate [3]) [s⁻¹]	self-cleavage kobs at 2500 uM GlcN6P (glucosamine-6-phosphate [4]) [s⁻¹]	self-cleavage kobs at 10000 uM GlcN6P (glucosamine-6-phosphate [5]) [s⁻¹]	self-cleavage kobs at 40 uM GlcN6P (glucosamine-6-phosphate [6]) [s⁻¹]	self-cleavage kobs at 160 uM GlcN6P (glucosamine-6-phosphate [7]) [s⁻¹]
U45A C67G	0.000766 ± 0.00012	2290 ± 680	0.000163 ± 2.6e-05	0.000606 ± 0.00012	0.0006 ± 6.8e-05	–	–
U31C C58U	2.26e-05 ± 7.2e-06	–	–	2.64e-05 ± 1.3e-05	–	–	–
A14C C68G	2.74e-05 ± 5.8e-06	–	4.49e-05 ± 1.5e-05	–	2.58e-05 ± 8.4e-06	–	–
G43C C68G	0.0157 ± 0.0024	265 ± 63	0.0109 ± 0.0018	0.0139 ± 0.0031	–	0.00205 ± 0.00027	0.00622 ± 0.0014
C50A G66C	1.65e-05 ± 3e-06	–	–	–	–	–	–
A15G C61U	1.94e-05 ± 1e-06	631 ± 280	–	–	–	–	–
A33U C71U	0.000125 ± 1.3e-05	2840 ± 690	3.01e-05 ± 7.2e-06	5.58e-05 ± 5.4e-06	0.0001 ± 9.1e-06	–	–
A14G U55C	0.0632 ± 0.029	–	0.0382 ± 0.012	–	0.0522 ± 0.015	0.00179 ± 0.00021	0.00449 ± 0.00098
A12G C67A	0.000389 ± 8.6e-05	2400 ± 880	7.88e-05 ± 8.7e-06	0.000186 ± 2.1e-05	0.000343 ± 4.8e-05	–	4.4e-05 ± 1e-05
U47A A64C	0.000113 ± 8.6e-06	720 ± 280	6.51e-05 ± 1.8e-05	7.85e-05 ± 1.3e-05	0.000109 ± 1.1e-05	–	–
A53G U55A	0.0853 ± 0.029	3480 ± 1400	0.0112 ± 0.002	0.0611 ± 0.023	0.065 ± 0.014	0.00112 ± 0.00013	0.00332 ± 0.00069
U49G G66A	0.000689 ± 0.00024	6210 ± 3000	5.55e-05 ± 1.3e-05	0.00024 ± 3.6e-05	0.000375 ± 9.3e-05	–	–
A15G C50U	9.75e-05 ± 1.3e-05	2370 ± 1000	–	4.52e-05 ± 1.3e-05	8.01e-05 ± 1.2e-05	–	–
U46G A53G	0.00499 ± 0.0025	–	0.00165 ± 0.00049	0.00267 ± 0.00089	0.00811 ± 0.0028	0.000271 ± 7.8e-05	0.000482 ± 0.00011
C11U A14U G38A C50U U65G	2.42e-05 ± 9.7e-06	–	–	–	–	–	–
A53G U57G	5.45e-05 ± 1.2e-06	1880 ± 180	–	3.07e-05 ± 1.4e-05	4.6e-05 ± 8.2e-06	–	–
A39C G43U C68U	9.32e-05 ± 1.5e-05	1780 ± 810	–	5.95e-05 ± 1.4e-05	7.63e-05 ± 1.8e-05	–	–
U45A C70A	0.000375 ± 0.00017	–	0.000179 ± 3.7e-05	0.000225 ± 3.4e-05	–	–	2.63e-05 ± 1.1e-05
U30C C68A	3.05e-05 ± 8e-06	–	–	3.62e-05 ± 1.1e-05	–	–	–
U54G C61U	2.79e-05 ± 5.8e-06	–	–	3.11e-05 ± 1.3e-05	2.39e-05 ± 1e-05	–	–
G13U U69A	4.51e-05 ± 1.2e-05	–	–	6.1e-05 ± 1.3e-05	3.28e-05 ± 1.1e-05	–	–

Variant	kcat (glucosamine-6-phosphate [1]) [s⁻¹]	KM (glucosamine-6-phosphate [2]) [µM]	self-cleavage kobs at 640 uM GlcN6P (glucosamine-6-phosphate [3]) [s⁻¹]	self-cleavage kobs at 2500 uM GlcN6P (glucosamine-6-phosphate [4]) [s⁻¹]	self-cleavage kobs at 10000 uM GlcN6P (glucosamine-6-phosphate [5]) [s⁻¹]	self-cleavage kobs at 40 uM GlcN6P (glucosamine-6-phosphate [6]) [s⁻¹]	self-cleavage kobs at 160 uM GlcN6P (glucosamine-6-phosphate [7]) [s⁻¹]
G13A A15U	0.00015 ± 1.5e-05	3530 ± 1100	–	6.03e-05 ± 2.6e-05	0.000111 ± 1.5e-05	–	–
A15C C67U	0.00143 ± 0.00033	881 ± 330	0.00045 ± 6.9e-05	0.00177 ± 0.00038	0.00139 ± 0.00015	7.54e-05 ± 8.7e-06	0.000198 ± 6.2e-05
U57A G59A	1.13e-05 ± 3e-06	–	< 1e-05	–	–	–	–
G35A C50G	0.000781 ± 0.00018	1190 ± 540	0.000273 ± 0.00012	0.000615 ± 0.00015	–	–	–
A14C G29A A53U G59A C68U	< 1e-05	–	–	–	–	–	–
C16G C50G	4.79e-05 ± 1.9e-05	–	–	6.05e-05 ± 1.4e-05	–	–	–
C58A G60C C67G	1.21e-05 ± 3.8e-06	–	–	–	–	–	–
A33U G40C	5.14e-05 ± 7.9e-06	–	–	–	–	–	–
C16G U57A	5.68e-05 ± 5.7e-06	1570 ± 780	–	3.99e-05 ± 1.7e-05	4.85e-05 ± 8.9e-06	–	–
U57A G66U	2.06e-05 ± 1.5e-06	–	–	–	–	< 1e-05	–
G29C C71U	0.00146 ± 0.0004	1590 ± 700	0.000356 ± 4.9e-05	0.000805 ± 9.7e-05	0.00143 ± 0.00015	6.23e-05 ± 7.6e-06	0.000119 ± 1.8e-05
C10U C61U G63A	< 1e-05	–	–	–	< 1e-05	–	–
C16G G59A C71G	1.74e-05 ± 4.8e-06	–	–	–	–	–	–
C16U A48U C58G C70G	4.36e-05 ± 1.5e-05	–	7.73e-05 ± 3e-05	–	–	–	4e-05 ± 1.8e-05
A6U G35U G38C A53U A64G	< 1e-05	–	–	–	–	–	< 1e-05
C61G U69C C70G	5.75e-05 ± 1.9e-05	–	6.36e-05 ± 2.5e-05	8.71e-05 ± 4.1e-05	–	–	5.95e-05 ± 2.1e-05
U54G	0.0504 ± 0.0099	1870 ± 470	0.0116 ± 0.00052	0.0251 ± 0.0014	0.0511 ± 0.0026	0.00117 ± 3.8e-05	0.00365 ± 0.00023
G32C C50G	5.17e-05 ± 1.5e-05	–	6.25e-05 ± 2e-05	–	–	4.21e-05 ± 1.5e-05	–
C50U C61G C70U	1.56e-05 ± 2.6e-06	–	–	–	–	–	–
C11G A33U U54G C67A C71U	1.15e-05 ± 1.8e-06	–	–	–	–	–	–
